The experiment concerns the target 14-3-3β (UniProt P31946). Description: co-IP. To be noted: reference: wild type.

On to TFEB (from UniProt P19484) S138A, for which the “binding against the reference” value (sites S138) is “weaker”.
In the case of TFEB (from UniProt P19484) S142A, the “binding against the reference” value (sites S142) is on record as “weaker”.

(Values after PMC7334434.)
